Measured values taken from patent US20200017592A1 (Regeneron, published 2020).

T1: full-length human IL-36R on cells (human, UniProt Q9HB29 20-575)
T1 sequence (looked up): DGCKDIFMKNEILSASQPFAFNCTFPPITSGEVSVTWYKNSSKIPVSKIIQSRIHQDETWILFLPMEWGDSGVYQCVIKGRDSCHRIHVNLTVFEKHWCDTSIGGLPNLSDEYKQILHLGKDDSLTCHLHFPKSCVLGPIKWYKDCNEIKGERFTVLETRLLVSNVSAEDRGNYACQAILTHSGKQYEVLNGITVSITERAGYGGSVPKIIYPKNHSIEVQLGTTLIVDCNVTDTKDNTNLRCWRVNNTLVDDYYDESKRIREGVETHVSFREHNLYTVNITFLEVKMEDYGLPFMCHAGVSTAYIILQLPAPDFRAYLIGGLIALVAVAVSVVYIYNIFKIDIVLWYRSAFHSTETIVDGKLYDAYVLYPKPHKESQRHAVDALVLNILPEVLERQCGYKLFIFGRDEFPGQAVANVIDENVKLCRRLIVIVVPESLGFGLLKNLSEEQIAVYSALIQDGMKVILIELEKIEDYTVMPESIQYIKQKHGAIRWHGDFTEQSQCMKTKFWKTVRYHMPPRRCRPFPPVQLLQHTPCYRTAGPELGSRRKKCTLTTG

T2: Macaca fascicularis IL-36R on cells (Macaca fascicularis, UniProt A0A2K5WSK9 20-558)
T2 sequence: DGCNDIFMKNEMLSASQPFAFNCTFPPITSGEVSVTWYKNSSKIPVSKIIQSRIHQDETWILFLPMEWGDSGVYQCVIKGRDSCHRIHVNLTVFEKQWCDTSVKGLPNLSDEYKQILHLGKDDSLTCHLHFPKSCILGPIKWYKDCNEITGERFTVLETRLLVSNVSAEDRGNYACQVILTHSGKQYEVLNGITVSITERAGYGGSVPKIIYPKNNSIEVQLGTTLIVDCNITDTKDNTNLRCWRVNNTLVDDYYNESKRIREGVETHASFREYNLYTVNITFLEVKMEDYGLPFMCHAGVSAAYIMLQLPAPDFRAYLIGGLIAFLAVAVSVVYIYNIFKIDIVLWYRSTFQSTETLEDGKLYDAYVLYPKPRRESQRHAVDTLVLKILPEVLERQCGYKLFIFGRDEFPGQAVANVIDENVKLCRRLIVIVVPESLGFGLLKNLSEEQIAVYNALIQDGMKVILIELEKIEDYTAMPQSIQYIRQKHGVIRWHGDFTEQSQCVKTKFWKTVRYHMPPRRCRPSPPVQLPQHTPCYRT


Key:
[1] = biological target: T1, full-length human IL-36R on cells; assay: cell-based or functional assay
[2] = biological target: T2, Macaca fascicularis IL-36R on cells; assay: cell-based or functional assay
[3] = biological target: T3, recombinant human IL-36R extracellular domain expressed with a C-terminal myc-myc-hexahistidine tag (human, UniProt Q9HB29 20-337); assay: SPR (Biacore 4000), mAb captured on anti-human Fc, 25°C
T3 construct: also called hIL-36R-MMH; hIL-36R.mmH
Experimental: (§1) Equilibrium dissociation constants (KD values) for IL-36R binding to purified anti-IL-36R antibodies were determined using a real-time surface plasmon resonance biosensor using a Biacore 4000 instrument. The Biacore sensor surface was first derivatized by amine coupling with a monoclonal mouse anti-human Fc antibody (GE, # BR-1008-39) to capture anti-IL-36R monoclonal antibodies. All binding studies were performed in 0.01 M Hepes pH 7.4, 0.15 M NaCl, 3 mM EDTA, and 0.05% v/v Surfactant Tween-20 (HBS-ET running buffer) at 25° C. and 37° C. Different concentrations of IL-36R reagents, human IL-36R extracellular domain expressed with a C-terminal myc-myc-hexahistidine tag (hIL-36R-MMH), Macaca fascicularis IL-36R extracellular domain expressed with a C-terminal myc-myc-hexahistidine tag (mfIL-36R-MMH: mROR1 signal sequence (M1-A29). Macaca fascicularis IL36R_ecto domain (D20-A336).mycmycHis6), human IL-36R extracellular domain expressed with a C-terminal mouse IgG2a Fc tag (hIL-36R-mFc: mROR1 signal sequence (M1-A29)-human IL36R (D20-Y337)-mouse IgG2aFc (E98-K330)) or an in-line fusion protein of human IL-36R extracellular domain and IL1RAcP extracellular domain expressed with mouse IgG2a Fc tag (hIL-36R-Trap-mFc: mROR1 signal sequence (M1-A29)-human IL36R ecto domain (D20-Y337)-human IL1RacP ecto domain(S21-E359)-mouse IgG2aFc) in HBS-ET running buffer (ranging from 100 nM to 3.7 nM, 3-fold dilutions) were injected over the anti-IL-36R antibody captured surface for 4 minutes at a flow rate of 30 μL/minute and their dissociation in HBS-ET running buffer was monitored for 10 minutes. Kinetic association rate constant (kₐ) and dissociation rate constant (kd) were determined by fitting the real-time sensorgrams to a 1:1 binding model using Scrubber 2.0c curve fitting software. Binding dissociation equilibrium constants (KD) and dissociative half-lives (t_{1/2}) were calculated from the kinetic rate constants as: […]

[4] = biological target: T3, recombinant human IL-36R extracellular …; assay: SPR (Biacore 4000), mAb captured on anti-human Fc, 37°C
Experimental: as §1

Row | Binder | IC50 [M], NFκB-luciferase, 10 pM hIL-36γ [1] | IC50 [M], NFκB-luciferase, 20 pM hIL-36α [1] | Max Inhibition (%), NFκB-luciferase, 10 pM hIL-36γ [1] | Max Inhibition (%), NFκB-luciferase, 20 pM hIL-36α [1] | IC50 [M], NFκB-luciferase, 300 pM hIL-36γ [2] | IC50 [M], NFκB-luciferase, 500 pM hIL-36α [2] | IC50 [M], NFκB-luciferase, 600 pM hIL-36β [2] | Max Inhibition (%), NFκB-luciferase, 300 pM hIL-36γ [2] | Max Inhibition (%), NFκB-luciferase, 500 pM hIL-36α [2] | Max Inhibition (%), NFκB-luciferase, 600 pM hIL-36β [2] | 100 nM hIL-36R-MMH Bound (RU) [3] | Kd [3] | koff [3] | kon [3] | t½ [3] | 100 nM hIL-36R-MMH Bound (RU) [4] | Kd [4] | koff [4] | kon [4] | t½ [4] | also measured
1 | H4H14757P (antibody, human IgG4 S228P, kappa, V domains shown) VH: EVQLVESGGGLVQPGRSLRLSCTASGFTFDDYAMHWVRQAPGKGLEWVSGIRWNGGSIGYVDSVKGRFTISRDNAKKSLHLQMNSLKTEDTALYYCAKDIGDILTGFYGEYGMDVWGQGTTVTVSS VL: DIQMTQSPSSLSASEGDRVTITCRASQSISSYLNWYQQKAGKAPNLLIYAASSLQSGVPSRFSGSGSGTEYTLTISSLQPEDFATYYCQQSYIIPYTFGQGTKLEIKR | 1.3e-10 M | 1.8e-10 M | 87% | 101% | > 1e-07 M | > 1e-07 M | > 1e-07 M | 25% | 29% | 36% | 94 RU | 2.18 nM | 0.000396 s⁻¹ | 182000 M⁻¹ s⁻¹ | 29 min | 129 RU | 5.18 nM | 0.00109 s⁻¹ | 210000 M⁻¹ s⁻¹ | 11 min | 
2 | H4H14728P (antibody, human IgG4 S228P, kappa, V domains shown) VH: QVQLQESGPGLVKPSQTLSLTCTVSGGSISSADYYWSWIRQHPGKGLEWIGSIYYTGSTYYNPSLKSRLTISIDTSENQFSLKLTSLTAADTAVYYCASEEANWGSHFDSWGQGTLVTVSS VL: DIQMTQSPSSLSASVGDRVTITCRASQSIDNFLNWYQQKPGKAPKLLIYAASSLQSGVPSRFSGSGSGTDFTLTISSLQPEDFASYYCQHSHSAHPITFGQGTRLEIKR | 1.2e-09 M | 9.7e-10 M | 99% | 97% | 2e-09 M | 1.3e-09 M | 1.5e-09 M | 93% | 93% | 95% | 69 RU | 7.87 nM | 0.000773 s⁻¹ | 98300 M⁻¹ s⁻¹ | 15 min | 93 RU | 21.5 nM | 0.00293 s⁻¹ | 136000 M⁻¹ s⁻¹ | 4 min | IC50 [M], NFκB-luciferase, 15 pM hIL-36β [1]: 1.3e-09 M; Max Inhibition (%), NFκB-luciferase, 15 pM hIL-36β [1]: 99%
3 | H4H14731P (antibody, human IgG4 S228P, kappa, V domains shown) VH: QLQLQESGPGLVKPSETLSLTCTVSGGSISSSNYYWGWIRQPPGKRLEWIGSIYYSGSTYYNPSLKTRVTISVDTSKNQFSLKLTSVTAADTAVYYCAREEAAALTHFDFWGQGTLVTVSS VL: DIQMTQSPSSLSASVGDRVTITCRASQSISNYLNWYQQKPGKAPKLLIFAASSLQSGVPSRFSGSGSGTDFTLTISSLQPEDFATYYCQHSHSSHPITFGQGTRLEIKR | 7.3e-10 M | 7.8e-10 M | 99% | 99% | 5.4e-09 M | 3.1e-09 M | 7.1e-09 M | 75% | 84% | 78% | 54 RU | 3.72 nM | 0.000343 s⁻¹ | 92200 M⁻¹ s⁻¹ | 34 min | 81 RU | 7.11 nM | 0.000971 s⁻¹ | 137000 M⁻¹ s⁻¹ | 12 min | IC50 [M], NFκB-luciferase, 15 pM hIL-36β [1]: 9.4e-10 M; Max Inhibition (%), NFκB-luciferase, 15 pM hIL-36β [1]: 99%
4 | H4H14732P2 (antibody, human IgG4 S228P, kappa, V domains shown) VH: EVQLVESGGGLVQPGRSLRLSCAASGFTFDDYAMHWVRQAPGKGLEWVSGINWAGYNIDYADSVKGRFTISRDNAKNSLYLQMNSLRAEDTALYYCAKDMRGFSYGFPFDYWGQGTLVTVSS VL: not shown | > 1e-08 M | > 1e-08 M | 69% | 61% | > 1e-07 M | > 1e-07 M | > 1e-07 M | 36% | 47% | 43% | 26 RU | 13.9 nM | 0.000569 s⁻¹ | 41000 M⁻¹ s⁻¹ | 20 min | 34 RU | 27.6 nM | 0.00116 s⁻¹ | 42100 M⁻¹ s⁻¹ | 10 min | IC50 [M], NFκB-luciferase, 15 pM hIL-36β [1]: > 1e-08 M; Max Inhibition (%), NFκB-luciferase, 15 pM hIL-36β [1]: 69%
